Results from the nanobody polyreactivity screen of Harvey et al. (2022).

Experiment: yeast display, Sf9 membrane polyspecificity reagent, FACS + sequencing; frameworks hold sequencing errors
How it was run: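 A synthetic nanobody library was expressed on Saccharomyces cerevisiae BJ5465 by galactose induction for 36–48 hours. The library was stained for 1 hour at 4 °C with 10% biotinylated, detergent-solubilized Sf9 membrane reagent and enriched with streptavidin microbeads before FACS. Low and high (top ~1%) gates were set on anti-HA fluorescence for expression and streptavidin fluorescence for reagent binding, and each polyreactivity label reflects the gate of origin.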

Sequence | polyreactivity (PSR sort gate)
QVQLVESGGGLVQAGGSLRLSCAASGSIFVSYAMGWYRQAPGKERELVAAITRSGGSTYYADSVKGRFTISRDNAKNTVYLQMNSLKPEDTAVYYCAARSYLGAYRRYYWGQGTQVTVSS | high polyreactivity
QVQLVESGGGLVQAGGSLRLSCAASGSIFVSYAMGWYRQAPGKERELVAVISYSGVSTYYADSVKGRFTISRDNAKNTVYLQMYSLKPEDTAVYYCATRQYGTRHILKYNYWGQGTQVTVSS | low polyreactivity
QVQLVESGGGLVQAGGSLRLSCAASGSIFVSYTMGWYRQAPGKERELVAAITRSGGSTYYADSVKGRFTISRDNAKNTVYLQMNSLKPEDTAVYYCARVSRRGPGYTTLYSRYDYWGQVTQVTVSS | low polyreactivity
QVQLVESGGGLVQAGGSLRLSCAASGSIFVTYAMGWYRQAPGKERDLVATITNVGRTNYADSVKGRFTISRDNAKNTVYLQMNSLKPEDTAVYYCNADGAPGYPGAYDYWGQGTQVTVSS | low polyreactivity
QVQLVESGGGLVQAGGSLRLSCAASGSIFVTYAMGWYRQAPGKERELVASISWRGVSTRYADSVKGRFTISRDNAKNTVYLQMNSLKPEDTAVYYCAARVTSHMYYWGQGTQVTVSS | high polyreactivity
QVQLVESGGGLVQAGGSLRLSCAASGSIFVTYAMGWYRQAPWKDWELVAAISTSGGSTYADSVKGRFTISRDNAKNTVYLQMNSLKPVDTAVYYCNADDPGYAVPWYWFKYDYWGQGTQVTVSS | low polyreactivity
QVQLVESGGGLVQAGGSLRLSCAASGSIFVVNAMGWYRQAPGKERELVAAITFSGDSTYYADSVKGRFTISRDNAKNTVYLQMNSLKPEDTAVYYCAAARRSSHWFTYDYWGQGTQVTVSS | high polyreactivity
QVQLVESGGGLVQAGGSLRLSCAASGSIFVVYAMGWYRQAPGKEREMVAVISNGGTTNYADSVKGRFTISRDNAKNTVYLQMNSLKPEDTAVYYCAKASSRRYWTIRDGDYWGQGTQVTVSS | low polyreactivity
QVQLVESGGGLVQAGGSLRLSCAASGSIFVWNALGWYRQAPGTERELVAAISYTDGSTYYADSVKGRFTISRDNATNTVYFQMNSLKPEVTAVYYCNAYPASRGPGNPLDDYWGQGTQVTVSS | low polyreactivity
QVQLVESGGGLVQAGGSLRLSCAASGSIFVWNAMGWYRPAPGKERELVAAIRSDDDSTYYADSVKGRFTISRDNAKNTVYLQMNSLKPEDTAVITALVDSPTFSHVKPWDGGDYWGQGTQVTVSS | low polyreactivity
QVQLVESGGGLVQAGGSLRLSCAASGSIFVWYAMGWYRQAPGKERELVAAITSSGGSTYYADSVKGRFTISRDYAKNTVYLQLNSLKPEDTAVYYCAKTPSRRGYYWGQGTQVTVSS | low polyreactivity
QVQLVESGGGLVQAGGSLRLSCAASGSIFVWYAMGWYRQAPGKERELVAVISYGGDRTSYADSVKGRFTISRDNAKNTVYLQMNSLKPEDTAVYYCAARPFYRGYYYWGQGTQVTVSS | high polyreactivity
QVQLVESGGGLVQAGGSLRLSCAASGSIFVWYDMGWYRQAPGKERELVATISLSGVSTYYADSVKGRFTISRDNAKNPVYLQLNSLKPEDTAVYYCAADFVEQGEDDYWGQGTQVTVSS | low polyreactivity
QVQLVESGGGLVQAGGSLRLSCAASGSIFVYNAMGWYRQAPGKEMELVASITWSGGRTYYADSVKGRFTISRDHAKNTVYLQMNSLKPEDTAVYYCNKRQYSRTFRYGYWGQGTQVTLSS | high polyreactivity
QVQLVESGGGLVQAGGSLRLSCAASGSIFVYNAMGWYRQAPGKERELVASITWSGGRTYYADSVKGRFTISRDNAKNTVYLQMNSLKPEDTAVYYCNVRQGGPTVTWEYDYWGQGTQVTVSS | high polyreactivity
QVQLVESGGGLVQAGGSLRLSCAASGSIFVYNDMGGYRQAPGKERELVAGIDWSGDRTYADSVKGRFTISRDNAKNTVYLQMNSLKPEDTAVYYCIADEWRWDEILPYAVDYWGQGTQVTVSS | low polyreactivity
QVQLVESGGGLVQAGGSLRLSCAASGSIFVYNDMGWYRQAPGKERELVAGIDWSGDRTYADSVKGRFTISRDNAKYTVYLQMNSLKPEDTAVYYCNAERYPYRLRARKLDYWGQGTQVTVSS | low polyreactivity
QVQLVESGGGLVQAGGSLRLSCAASGSIFVYNVMGWYRQAPGKERELVAAISKTAGRTYYEDSVKGRFTISRDNAKNTVYLQMNSLKPEDTAVYYFAVGNKRDAYYQYSSYGYWGQGTQVTVSS | low polyreactivity
QVQLVESGGGLVQAGGSLRLSCAASGSIFVYYAMGWYRPAPGKERELVASISRGGTSTYYADSVKGRFTISRDNAKNTVYFQMNSLKPEDTAVYYCAAQPYRTGTYDYWGQGTQVTVSS | low polyreactivity
QVQLVESGGGLVQAGGSLRLSCAASGSIFVYYAMGWYRQAPGKDRELVAAITTSGGSTYYADSVKGRFTISRDNAKNTVYLQMNSLKPEDTAVYYCAAVLLAWYWSYSVPWAYDYWGQGTQVTVTS | low polyreactivity
QVQLVESGGGLVQAGGSLRLSCAASGSIFVYYAMGWYRQAPGKERELVAAITETGGDTYYADSVKGRFTISRDNAKNTVYLQMNSLKPEDTAVYYCNTVRRSYWSWSTENSDYWGQGTQVTVSS | low polyreactivity
QVQLVESGGGLVQAGGSLRLSCAASGSIFVYYAMGWYRQAPGKERELVASISESDGSTSYADSVKGRFTISRDNAKNTVYLQMNSLKPEDTAVYYCAADPYFFWYSPSFDYWGQGSQVTVSS | low polyreactivity
QVQLVESGGGLVQAGGSLRLSCAASGSIFVYYAMRWYRQAPGKERELVAAITIGASTDYADSVKGRFTISRDNAKNTVYLQMNSLKPEDTAVYYCAADLYYGDYRTLPKPDEYDYWGQGTQVTVSS | low polyreactivity
QVQLVESGGGLVQAGGSLRLSCAASGSIFVYYTMGWYRQAPGKERELVAAISFSGGSTYADSVKGRFTISRDNAKNTVYLQMNSLKPEDTAVYFCNADRWLYTPSKFVEMDYWGQGTQVTVSS | low polyreactivity
QVQLVESGGGLVQAGGSLRLSCAASGSIFWANAMGWYRQAPGKERELVAAISSSGGGTYYADSVKGRFTISRDNAKNTVYLQMNSLKPVDTAVYYCNKLRLDYYEQGDYWGQGSQVTVSS | high polyreactivity
QVQLVESGGGLVQAGGSLRLSCAASGSIFWAYTMGWYRQAPGKERELVAAISASGGSTYYADSVKGRFTISRDNAKNTVYLQMNSLKPEDTAVYYCAAVYDLGYYGPIWAIVLDDYWGQGTQVTVSS | low polyreactivity
QVQLVESGGGLVQAGGSLRLSCAASGSIFWGNAMGWYRQAPGKERELVAAIDWSGGSTYYADSVKGRFTISRDNAKNTVYLQMNSLKPEDTAVYYCAADYLGGGDVGFDYWGQGTQVTVSS | low polyreactivity
QVQLVESGGGLVQAGGSLRLSCAASGSIFWGNAMGWYRQAPGKERELVAAITGSGGSSYYADSVKGRFTISRDNAKNRVYLLMNSVKPEDTAVYYCADLFRTFYYWGQGTQVTVSS | high polyreactivity
QVQLVESGGGLVQAGGSLRLSCAASGSIFWGYAMGWYRQAPGKERELVATISWTGGSTYYADSVKGRFTISRDNAKNTVYLQMNSLKPEDTAVYYGAKVIIHYYYVVNLVDVDYWGQGTQVTVSS | low polyreactivity
QVQLVESGGGLVQAGGSLRLSCAASGSIFWIYAMGWYRQAPGKERELVARITWTGGRTYYADSVKGRFTISRDNAKNTVYLQMNSLKPEDTAVYYCAVTSYRQRGAFDYWGQGSQVTVSS | high polyreactivity
